Article PMC5726854
pKd: −log10 of the molar value. Each block holds one substance with its values, some of them ahead of it.

What was measured:
[1] = target: E. coli ribosomes (E. coli); test: FRAP (diffusion coefficient in living cells); E. coli cytoplasm, 30°C, 0.28 Osm; fraction bound from the effective diffusion coefficient (Equation 1); Kd per binding site from Equation 2 with 660 µM binding sites assumed
[2] = target: Hfx. volcanii ribosomes (Haloferax volcanii (endogenous in H1895)); test: FRAP (diffusion coefficient in living cells); Hfx. volcanii cytoplasm, 30°C; fraction bound from the effective diffusion coefficient; Kd per binding site with the ribosome concentration assumed as in E. coli
[3] = target: L. lactis ribosomes (Lactococcus lactis (endogenous in NZ9000)); test: FRAP (diffusion coefficient in living cells); L. lactis cytoplasm, 30°C; fraction bound from the effective diffusion coefficient; Kd per binding site with the ribosome concentration assumed as in E. coli

- pKd [1]: 5.17
- fraction bound [1]: 0.99
Substance: +25 GFP

- pKd [2]: 3.81
- fraction bound [2]: 0.81
Substance: +25 GFP (expressed in Hfx. volcanii)

- pKd [3]: 4.19
Substance: +25 GFP (expressed in L. lactis)
